Data set [1] concerns the target T1, ALX4 R218Q (Mus musculus (region identical to human), UniProt Q9H161 209-274, R218Q). Description: ITC. Background: Isothermal titration calorimetry measures the heat released or taken up as one component is titrated into another.
For data set [2], the target named is T1, ALX4 R218Q. Description: EMSA. A general note: In EMSA bound probe runs differently from free probe, usually more slowly.
The target of another data set is ALX4 R215A;R216A (Mus musculus (region identical to human), UniProt Q9H161 209-274, R215A;R216A). Description: EMSA.
The target of the next data set is ALX4 R216A (Mus musculus (region identical to human), UniProt Q9H161 209-274, R216A). Description: EMSA.
The target of a further data set is ALX4 R215A (Mus musculus (region identical to human), UniProt Q9H161 209-274, R215A). Description: EMSA.
The target in a further data set is ALX4 R216G (Mus musculus (region identical to human), UniProt Q9H161 209-274, R216G). Description: EMSA.
The next data set has as its target ALX4 Q225E (Mus musculus (region identical to human), UniProt Q9H161 209-274, Q225E). The data set is described as follows: EMSA.
Data set [3] has as its target ALX4 169-303;ALX4 HD (209-274) (Mus musculus (region identical to …, UniProt Q9H161;Q9H161 169-303;209-274, |)). The data set is described as follows: EMSA.
Another data set addresses ALX4 169-303;ALX4 R272P (Mus musculus (region identical to …, UniProt Q9H161;Q9H161 169-303;209-274, |R272P)). Description: EMSA.
A further data set deals with ALX4 169-303;ALX4 K211E (Mus musculus (region identical to …, UniProt Q9H161;Q9H161 169-303;209-274, |K211E)). The data set is described as follows: EMSA.
A further data set addresses ALX4 R272P (Mus musculus (region identical to human), UniProt Q9H161 209-274, R272P). Description: EMSA.
The next data set concerns the target ALX4 K211E (Mus musculus (region identical to human), UniProt Q9H161 209-274, K211E). The data set is described as follows: EMSA.

T1 sequence (Q9H161 209-274 R218Q): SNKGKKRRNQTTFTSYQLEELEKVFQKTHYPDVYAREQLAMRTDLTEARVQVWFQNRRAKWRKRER
Sequence of ALX4 Q225E (Q9H161 209-274 Q225E): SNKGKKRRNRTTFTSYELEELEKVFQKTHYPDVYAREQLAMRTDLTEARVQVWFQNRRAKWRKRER
Sequence of ALX4 R215A (Q9H161 209-274 R215A): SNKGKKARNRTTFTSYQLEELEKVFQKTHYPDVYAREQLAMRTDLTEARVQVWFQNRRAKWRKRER
Sequence of ALX4 R216A (Q9H161 209-274 R216A): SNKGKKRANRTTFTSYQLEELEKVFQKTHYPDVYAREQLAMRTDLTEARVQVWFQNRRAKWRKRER
Sequence of ALX4 169-303;ALX4 R272P (Mus musculus (Q9H161 169-303, stated change not applied, chain 1 of 2): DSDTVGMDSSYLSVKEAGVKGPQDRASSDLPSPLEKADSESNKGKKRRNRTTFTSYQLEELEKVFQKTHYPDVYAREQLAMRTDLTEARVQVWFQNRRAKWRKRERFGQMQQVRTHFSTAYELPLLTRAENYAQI
Sequence of ALX4 169-303;ALX4 R272P (Mus musculus (Q9H161 209-274 R272P, chain 2 of 2): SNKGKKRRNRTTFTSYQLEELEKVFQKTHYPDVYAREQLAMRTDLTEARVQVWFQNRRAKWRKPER
Sequence of ALX4 169-303;ALX4 K211E (Mus musculus (Q9H161 169-303, stated change not applied, chain 1 of 2): as the sequence (Q9H161 169-303, stated change not applied, chain 1 of 2) above
Sequence of ALX4 169-303;ALX4 K211E (Mus musculus (Q9H161 209-274 K211E, chain 2 of 2): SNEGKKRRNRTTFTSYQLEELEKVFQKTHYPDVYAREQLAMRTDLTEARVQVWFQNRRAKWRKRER
Sequence of ALX4 169-303;ALX4 HD (209-274) (Mus musculus (Q9H161 169-303, chain 1 of 2): as the sequence (Q9H161 169-303, stated change not applied, chain 1 of 2) above
Sequence of ALX4 169-303;ALX4 HD (209-274) (Mus musculus (Q9H161 209-274, chain 2 of 2): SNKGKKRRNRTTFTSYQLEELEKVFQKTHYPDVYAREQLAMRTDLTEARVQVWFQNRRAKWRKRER
Sequence of ALX4 R215A;R216A (Q9H161 209-274 R215A/R216A): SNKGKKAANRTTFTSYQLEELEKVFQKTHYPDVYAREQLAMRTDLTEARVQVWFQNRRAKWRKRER
Sequence of ALX4 R272P (Q9H161 209-274 R272P): as the sequence (Q9H161 209-274 R272P, chain 2 of 2) above
Sequence of ALX4 K211E (Q9H161 209-274 K211E): as the sequence (Q9H161 209-274 K211E, chain 2 of 2) above
Sequence of ALX4 R216G (Q9H161 209-274 R216G): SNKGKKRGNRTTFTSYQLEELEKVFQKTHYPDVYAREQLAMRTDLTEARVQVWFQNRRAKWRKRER

B1: 14mer ITC duplex (dsDNA)
DNA 1: CGCTAATTAGCTCG
DNA 2: CGAGCTAATTAGCG
In the case of B1, in the data set with ALX4 R218Q [1], the binding result is “no binding”.

B2: P3 EMSA probe (dsDNA)
DNA 1: TGTGTCTTAATTAGATTAACGCACTTGATAGTGCGGGCGTGGCT
DNA 2: AGCCACGCCCGCACTATCAAGTGCGTTAATCTAATTAAGACACA
In the case of B2, the binding result with ALX4 R218Q [2] is “no binding”; in data set [3], “binds”; in the data set with ALX4 169-303;ALX4 R272P, “binds”; with ALX4 169-303;ALX4 K211E, “binds”; with ALX4 R272P it was “binds”; with ALX4 K211E it was “binds”. In addition, the binding signal in the data set with ALX4 R215A;R216A was ~20 fold reduction of Tau vs WT; with ALX4 R216A, ~10 fold reduction of Tau vs WT; with ALX4 R215A, ~5 fold reduction of Tau vs WT; in the data set with ALX4 R216G, ~10 fold reduction of Tau vs WT; in the data set with ALX4 Q225E, ~2 fold reduction of Tau vs WT.

Values taken from article PMC12102336.
